Reference: publication PMC4154765, “Crystal Structure of the Mineralocorticoid Receptor DNA Binding Domain in Complex with DNA” (PLoS ONE, 2014)

Experiments:
[1] = biological target: the molecule itself; assay: crystal structure; MR DBD crystallised with a 17 base pair GRE DNA, 2:1 molar ratio of DNA to protein, protein at 3.0 mg/ml; hanging-drop vapor diffusion, 0.2 M sodium malonate, 12% PEG 3350; the DBD dimer is seen bound to the two DNA half sites
MR DBD [2] = biological target: T1, MR DBD (human, UniProt P08235 593-671); assay: X-ray crystallography; DBD dimer on two half sites; 2.4 A; FP: 100 mM NaCl, 20 mM Tris-HCl pH 7.4, 5% glycerol, 10 nM FAM-GRE; temperature not stated; settings: protein: recombinant; tags: 6xHis (pMCSG7 vector); chain copies: 2
GR DBD = GR DBD (UniProt P04150 417-506); assay: fluorescence polarization; 10 nM DNA; slight positive cooperativity; endpoint called affinity; FP: 100 mM NaCl, 20 mM Tris-HCl pH 7.4, 5% glycerol, 10 nM FAM-GRE; temperature not stated; settings: protein: recombinant; chain copies: 2; label: 5' 6-FAM on strand 1; blunt
Chain of GR DBD (P04150 417-506): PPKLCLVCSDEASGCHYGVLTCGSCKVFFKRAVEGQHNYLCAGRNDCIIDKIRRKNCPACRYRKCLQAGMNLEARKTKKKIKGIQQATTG

MR DBD [3] = biological target: T1, MR DBD; assay: as above; settings: protein: recombinant; tags: 6xHis (pMCSG7 vector); chain copies: 2; label: 5' 6-FAM on strand 1; blunt

B1: human mineralocorticoid receptor DNA binding domain (domain or fragment, UniProt P08235 593-671, looked up)
chain: STGSSRPSKICLVCGDEASGCHYGVVTCGSCKVFFKRAVEGQHNYLCAGRNDCIIDKIRRKNCPACRLQKCLQAGMNLG
notes: Cloned into pMCSG7, 'which contains a 6X-histidine tag'; Two copies of the chain form the dimer on the GRE DNA in the crystal; also called MR DBD; MR
[1]
  binding result: binds

B2: GRE 17 bp (crystal) (dsDNA)
DNA 1: GTCTTGTCTCACAAGAC
DNA 2: GTCTTGTGAGACAAGAC
MR DBD [2]
  binding result: binds

B3: FAM-GRE (dsDNA)
DNA 1: CCAGAACAGAGTGTTCTGA
DNA 2: TCAGAACACTCTGTTCTGG
GR DBD
  Kd: 53 nM
MR DBD [3]
  Kd: 55 nM
